The values below come from the Immune Epitope Database (IEDB).

Bounds are passed on as bounds.

Experiment [1] deals with HLA-A*01:01. Nature of the experiment: IEDB peptide-MHC binding, purified MHC/direct/fluorescence; filed as Kd, often an IC50 or EC50 that approximates it; ≥ and ≤ were set here for values at or beyond the usual limits of such assays. To be noted: source organism: Camelpox virus CMS.
Experiment [2] has as its target HLA-A*03:01. The description is as above.
Experiment [3] addresses HLA-A*11:01. The experiment is described as above. To be noted: source organism: Camelpox virus CMS.
The target of experiment [4] is HLA-A*31:01. The description is as above. Particulars: source organism: Camelpox virus CMS.
Experiment [5] addresses HLA-A*69:01. Described as above.
For experiment [6], the target named is HLA-B*07:02. Described as above. Particulars: source organism: Camelpox virus CMS.
In experiment [7] the target is HLA-B*15:01. The description is as above.
Experiment [8] deals with HLA-B*18:01. The experiment is described as above. To be noted: source organism: Camelpox virus CMS.
For experiment [9], the target named is HLA-B*27:05. Described as above. To be noted: source organism: Camelpox virus CMS.
The target of experiment [10] is HLA-B*40:01. The experiment is described as above. Particulars: source organism: Camelpox virus CMS.
The target of experiment [11] is HLA-B*46:01. Described as above. Particulars: source organism: Camelpox virus CMS.
Experiment [12] has as its target HLA-B*48:01. The description is as above. Particulars: source organism: Camelpox virus CMS.
Experiment [13] has as its target HLA-B*57:01. Described as above.
Experiment [14] addresses HLA-B*58:01. Described as above. To be noted: source organism: Camelpox virus CMS.
The target in experiment [15] is HLA-A*02:01. Nature of the experiment: IEDB peptide-MHC binding, purified MHC/competitive/fluorescence; filed as Kd, often an IC50 or EC50 that approximates it; ≥ and ≤ were set here for values at or beyond the usual limits of such assays.
For experiment [16], the target named is HLA-A*26:03. The description is as above. To be noted: source organism: Variola virus.
The target of experiment [17] is HLA-A*68:02. Described as above. Particulars: source organism: Variola virus.
In experiment [18] the target is HLA-B*15:17. The description is as above.
The target in experiment [19] is HLA-B*07:02. Described as above. To be noted: source organism: Escherichia coli 536.
In experiment [20] the target is HLA-B*08:01. Described as above. To be noted: source organism: Escherichia coli 536.
Experiment [21] concerns the target HLA-B*15:01. The experiment is described as above.
Experiment [22] has as its target HLA-B*51:01. The experiment is described as above.
Experiment [23] has as its target HLA-A*02:12. The description is as above. Particulars: source organism: Escherichia coli O139:H28 str. E24377A.
In experiment [24] the target is HLA-A*03:01. Described as above. To be noted: source organism: Escherichia coli O139:H28 str. E24377A.
For experiment [25], the target named is HLA-A*25:01. The experiment is described as above. Particulars: source organism: Escherichia coli O139:H28 str. E24377A.
Experiment [26] concerns the target HLA-A*26:01. Described as above. To be noted: source organism: Escherichia coli O139:H28 str. E24377A.
Experiment [27] concerns the target HLA-A*29:02. The description is as above. To be noted: source organism: Escherichia coli O139:H28 str. E24377A.
Experiment [28] addresses HLA-A*80:01. The description is as above. To be noted: source organism: Escherichia coli O139:H28 str. E24377A.
The target in experiment [29] is HLA-B*18:01. The experiment is described as above. Particulars: source organism: Escherichia coli O139:H28 str. E24377A.
Experiment [30] deals with HLA-B*27:03. The description is as above. Particulars: source organism: Escherichia coli O139:H28 str. E24377A.
The target in experiment [31] is HLA-B*39:01. The description is as above. To be noted: source organism: Escherichia coli O139:H28 str. E24377A.
For experiment [32], the target named is HLA-B*57:01. Described as above. To be noted: source organism: Escherichia coli O139:H28 str. E24377A.
For experiment [33], the target named is HLA-A*02:10. Nature of the experiment: IEDB peptide-MHC binding, purified MHC/direct/fluorescence; filed as Kd, often an IC50 or EC50 that approximates it; ≥ and ≤ were set here for values at or beyond the usual limits of such assays. Particulars: source organism: Rickettsia typhi.
For experiment [34], the target named is HLA-A*02:11. The description is as above. Particulars: source organism: Rickettsia typhi.
The target of experiment [35] is HLA-A*02:12. Described as above. To be noted: source organism: Rickettsia typhi.
Experiment [36] concerns the target HLA-A*02:19. The experiment is described as above. To be noted: source organism: Rickettsia typhi.
The target in experiment [37] is HLA-A*02:50. Described as above. Particulars: source organism: Rickettsia typhi.
For experiment [38], the target named is HLA-A*23:01. Described as above. To be noted: source organism: Rickettsia typhi.
The target of experiment [39] is HLA-A*24:03. Described as above. Particulars: source organism: Rickettsia typhi.
Experiment [40] has as its target HLA-A*29:02. Described as above. To be noted: source organism: Rickettsia typhi.
For experiment [41], the target named is HLA-A*30:01. The description is as above. Particulars: source organism: Rickettsia typhi.
Experiment [42] has as its target HLA-A*80:01. The description is as above. Particulars: source organism: Rickettsia typhi.
The target in experiment [43] is HLA-B*44:02. Described as above. Particulars: source organism: Rickettsia typhi.
In experiment [44] the target is HLA-B*51:01. Described as above. Particulars: source organism: Rickettsia typhi.
The target in experiment [45] is HLA-B*51:01. Kind of experiment: IEDB peptide-MHC binding, purified MHC/competitive/fluorescence; ≥ and ≤ were set here for values at or beyond the usual limits of such assays. To be noted: source organism: Homo sapiens.
The target of experiment [46] is HLA-B*58:01. Described as above. Particulars: source organism: Homo sapiens.
Setting [47] is: source organism: Camelpox virus CMS.
The mark [48] stands for this setting: source organism: Escherichia coli 536.
[49] abbreviates: source organism: Escherichia coli O139:H28 str. E24377A.
[50] abbreviates: source organism: Rickettsia prowazekii.

In general, Kd refers to a measure of binding affinity in units of concentration. RVFDKADGK: the dissociation constant Kd in experiment [1] is no less than 20 µM; in [2] (setting [47]), 0.0788 µM; in experiment [3], 0.127 µM; in [4] it was 0.0997 µM; in experiment [5] (setting [47]) it was no less than 20 µM; in [6], no less than 20 µM. For the same sequence, the equilibrium dissociation constant (Kd) in [7] (setting [47]), in experiment [8], in [9], in experiment [10], in experiment [11] and in experiment [12] was no less than 20 µM in each case. Besides, the Kd in experiment [13] (setting [47]) is no less than 20 µM; in [14] it was no less than 20 µM; in experiment [15] (source organism: Variola virus), 1.05 µM; in experiment [16], no less than 20 µM; in experiment [17] it was no less than 20 µM; in experiment [18] (source organism: Variola virus), no less than 20 µM.
With SPLHVFVAV, the Kd is 0.0512 µM in experiment [19], no less than 20 µM in experiment [20], no less than 20 µM in [21] (setting [48]) and 3.66 µM in experiment [22] (setting [48]).
For SIPFGLMSA, the Kd was no less than 20 µM in experiment [15] (setting [49]); 0.881 µM in experiment [23]; no less than 20 µM in experiment [24]; no less than 20 µM in [25]; no less than 20 µM in experiment [26]; no less than 20 µM in experiment [27]. Also, the Kd in experiment [28], in experiment [21] (setting [49]), in [18] (setting [49]), in experiment [29], in experiment [30] and in [31] was no less than 20 µM each time. Further, the dissociation constant Kd in experiment [22] (setting [49]) and in experiment [32] was no less than 20 µM in each case.
For the sequence ELYPTVNTY, the Kd in [33] was no less than 20 µM; in [34] it was no less than 20 µM; in experiment [35], no less than 20 µM; in [36] it was no less than 20 µM; in experiment [37], no less than 20 µM; in experiment [2] (setting [50]), 2.02 µM. Further, the Kd in experiment [38] was no less than 20 µM; in experiment [39], no less than 20 µM; in experiment [40], 0.055 µM; in experiment [41], no less than 20 µM; in experiment [5] (setting [50]), 14.5 µM; in experiment [42] it was 4.5 µM. Further, the Kd was 0.228 µM in experiment [7] (setting [50]), no less than 20 µM in experiment [43], no less than 20 µM in [44] and no less than 20 µM in [13] (source organism: Rickettsia typhi).
As a reminder, the IC50 is the concentration that inhibits the measured activity by half. Read a high IC50 as lower potency. As to MASSPTSI, the values for the IC50 in experiment [45] and in [46] were 1.52 µM and 0.987 µM, respectively.
